Experimental data as given in the supplement of paper PMC12764529.
± gives the half width of the 95% confidence interval.

Tests used:
[1] = folding stability dG unfold from trypsin proteolysis; higher = more stable
Outline: (§1)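 K50 was inferred by Bayesian fitting of sequencing counts obtained after protease digestion of designed mini-proteins. Unfolding free energy was derived by comparison with a sequence-predicted unfolded-state K50 and a shared folded-state K50, for each protease or both combined. The mini-proteins were under 80 residues, had no cysteine, were carried in a PA-tagged cDNA display construct, and were kept only if AlphaFold2 dimer inter-PAE exceeded 15.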

[2] = folding stability dG unfold from chymotrypsin proteolysis; higher = more stable
Outline: as §1

[3] = folding stability dG unfold (combined trypsin and chymotrypsin); higher = more stable
Outline: as §1

Sequence	folding stability dG unfold [1]	folding stability dG unfold [2]	folding stability dG unfold [3]
SAGGESTPEIEPVATLELPTPDGRPITVEVYRLKDGTVRVVVRNPNPPETITLTIPAKEGETIPIFLSAGGS [r16_566_TrMRF]	1.9 ± 0.04 kcal/mol	2.2 ± 0.045 kcal/mol	2.11 ± 0.067 kcal/mol
SAGGSTVAKKTTEKDPNSDTTTVTITFPETGVKLTVTVPPGGETTVTLNNGSPPTTLTLPLSVLKLLSAGGS [r8_238_JUSTAS]	0.192 ± 0.077 kcal/mol	0.87 ± 0.067 kcal/mol	0.612 ± 0.077 kcal/mol
SAGGSAGGSAGMKELEITIIDKKTGKPLKVKVTLVEVDGKLYLVIEVYKNGKPLETYVLPSAGGSAGGSAGG [r11_631_TrROS_Hall]	2.29 ± 0.12 kcal/mol	3.2 ± 0.072 kcal/mol	3 ± 0.18 kcal/mol
SAGGSAGGSNLPAGQEIWFPIEIRIEMEMPVRDNGEPIWRMRMTMEHTIMLSIKVKPASPEDASAGGSAGGS [r20_14_TrROS]	3.75 ± 0.31 kcal/mol	5.11 ± 0.38 kcal/mol	4.88 ± 0.43 kcal/mol
SAGGSAGGSDPSATISFSFPLPDGSTININITITDEGSGPRIEIDITVTDANNNTAPAKFTIDSAGGSAGGS [r12_33_TrMRF]	1.58 ± 0.11 kcal/mol	1.4 ± 0.14 kcal/mol	1.65 ± 0.11 kcal/mol
SAGGSAGGSAMKPGEVIEIEITDKETGKKIKAEIVLKDGKLYIKIYNENGELIAEIEIEIKDSAGGSAGGSA [r18_264_TrROS_Hall]	2.83 ± 0.2 kcal/mol	3.4 ± 0.12 kcal/mol	3.42 ± 0.14 kcal/mol
SAGGSGMTTTFSKEVSSKEEAEKIFKRGFPDLNAKVTKFDPKKGTVEIELTFPDGKKSKATAPIKKSAGGSA [r2_201_JUSTAS]	-0.569 ± 0.58 kcal/mol	0.0996 ± 0.5 kcal/mol	-0.225 ± 0.37 kcal/mol
SAGGSAGGSAGGLLEIELPSRRILVELKLELKDGKLVKLEIKVKYEGREPEPLTSPEYKSAGGSAGGSAGGS [r10_1043_TrMRF]	1.71 ± 0.14 kcal/mol	1.94 ± 0.17 kcal/mol	1.76 ± 0.44 kcal/mol
SLDKARDILREHGMEPTSIDVVEDGWVKVTWEYPGNKVEIFIPEDGNIMIEFRNPNNGQRVERTIPVDDVSA [r9_2_TrROS]	-0.489 ± 0.2 kcal/mol	0.753 ± 0.14 kcal/mol	0.472 ± 0.15 kcal/mol
SAGGSPDEAVPLPVPAKITLPGGAEFTVEEAVVLPNGEVLVKATLISPYPDPREAPFVVPLELLDISSAGGS [r16_498_TrMRF]	-0.338 ± 0.054 kcal/mol	0.395 ± 0.03 kcal/mol	0.235 ± 0.066 kcal/mol
SAGGSAGGSAGGKKIIKVNLRIYDPVNPKVTVLPIEAPFDEIIKIAKEIAAPDQVVEISSAGGSAGGSAGGS [r10_397_TrMRF]	-0.844 ± 0.16 kcal/mol	-0.506 ± 0.097 kcal/mol	-0.654 ± 0.16 kcal/mol
SAGGSAGGSAGMMKVRIRVDGKEIEIEVPPGMTVDEIAERLKKEFGKDIEIEVEEVKPEPSAGGSAGGSAGG [r11_805_TrROS_Hall]	3.72 ± 0.23 kcal/mol	3.17 ± 0.1 kcal/mol	3.39 ± 0.22 kcal/mol
SAGARIVPIKINLKWNPDNGQLEVPIEMYVNNHPVEMEARFDPEDPGKIEFEITYPGNGQEIRASIPLPSAG [r14_178_TrROS]	0.951 ± 0.098 kcal/mol	-0.0473 ± 0.31 kcal/mol	0.467 ± 0.26 kcal/mol
SAGGSAEVVEREEYFEEKLPNGEKVKVRRIVTEITPIPGLPGYRVEYTVTVEIGDEWETYPLEVAESAGGSA [r15_465_JUSTAS]	1.53 ± 0.08 kcal/mol	1.51 ± 0.026 kcal/mol	1.61 ± 0.064 kcal/mol
SAGGSAGGSAPPYKYVQIELWIPGPIEEIADELQDNFGIRSIDVKRDPENGWVRADIYFQFPSAGGSAGGSA [r18_275_TrROS]	2.07 ± 0.046 kcal/mol	2.444 ± 0.024 kcal/mol	2.26 ± 0.14 kcal/mol
SAGGFKIKNIDVERNPDNGWRTITVEFPGNGWKFQIQVPPDGGVKYEWYNNGEPQTYTIPADDLKDLSAGGS [r8_238_TrROS]	1 ± 0.06 kcal/mol	1.34 ± 0.082 kcal/mol	1.2 ± 0.08 kcal/mol

Sequence	folding stability dG unfold [1]	folding stability dG unfold [2]	folding stability dG unfold [3]
PMIAPARLPDGSQTVSIFNANGELLVEAVVENDPELIEEAIEKLFEALPNIKPEELHVSVSDPETGESREIS [r1_55_TrMRF]	1.05 ± 0.049 kcal/mol	0.345 ± 0.17 kcal/mol	0.671 ± 0.19 kcal/mol
SAGGSAGGSAGSPIDTLVEEKTFTLPNGEKVIEATLKRPPGEPVHVVTIETKDSVIVELESAGGSAGGSAGG [r17_316_JUSTAS]	0.513 ± 0.019 kcal/mol	0.304 ± 0.086 kcal/mol	0.462 ± 0.049 kcal/mol
SAGMMKVKIELTIVVETKEEAEKLAEELKKALEELGIKEVKVTVEYDKETKKVTVTVEIEIELEPELLSAGG [r19_92_TrROS_Hall]	2.18 ± 0.21 kcal/mol	2.17 ± 0.1 kcal/mol	2.17 ± 0.23 kcal/mol
SAGGSAGGSAGGPNNKPKPKQVTFDIEIEDIEIDPEHGLISIEIRFPDGGKEITARIPISAGGSAGGSAGGS [r10_427_TrROS]	0.14 ± 0.059 kcal/mol	0.27 ± 0.11 kcal/mol	0.276 ± 0.16 kcal/mol
SAGMPVITTTEELPGGLTVTTTTYPPGDTTTTVTSPEGNVTTTTTTTTPTPTPTTTTTTTTTTTPVPPASAG [r5_944_JUSTAS]	1.56 ± 0.14 kcal/mol	1.26 ± 0.099 kcal/mol	1.44 ± 0.26 kcal/mol
SAGGATLTEPETTVEVRFEKLPDGTVIRTTTTITPEGVTTTTEPVPVPPSPGASSEEELEALRAAAAAASAG [r5_272_JUSTAS]	1.75 ± 0.037 kcal/mol	1.51 ± 0.037 kcal/mol	1.6 ± 0.18 kcal/mol
SDKIKNMTIEEILKKLPKGVKVGEKVEIEIDGKKITITKVEVVKDKNGKEIKRIYIEVEIDGEKIIIEIESA [r9_279_TrROS_Hall]	2.39 ± 0.23 kcal/mol	2.36 ± 0.27 kcal/mol	2.69 ± 0.46 kcal/mol
SAGGSAGGSAGGSKIYKLKVNGSVEKLIENLKKAGFKVEILSVYYDPETKELYVLFKISSAGGSAGGSAGGS [r4_315_TrMRF]	3.85 ± 0.1 kcal/mol	4.57 ± 0.068 kcal/mol	4.32 ± 0.079 kcal/mol
SAGMIDVVVRVRLDVRPETVAEELRRRFPAIRRIEPVRVERRVEREPGRRYLLVHLRIELGDVPPELLRSAG [r5_326_TrMRF]	1.78 ± 0.032 kcal/mol	3.714 ± 0.021 kcal/mol	3.33 ± 0.063 kcal/mol
SAGGSAPEPIRFYFWWPGKIIEITIPPDEIEKVEIKPDNGDIDITVKLPGEEVEISITPGAIHVQTSAGGSA [r15_598_TrROS]	1.56 ± 0.11 kcal/mol	2.57 ± 0.032 kcal/mol	2.29 ± 0.17 kcal/mol
SAGGSAGGSAGGEKTIVISEEEAEKLAKELEKKGLTVERKPDGTLKVNGKEIRIIVVEPSAGGSAGGSAGGS [r10_930_TrROS_Hall]	0.758 ± 0.077 kcal/mol	0.858 ± 0.07 kcal/mol	0.814 ± 0.17 kcal/mol
SAGGLAPVYKTEDGVYLITPYNPETGELLETIPISEEDIEELSKEYGRDLTIEEIVKKLGYETEITVASAGG [r13_836_TrMRF]	0.786 ± 0.057 kcal/mol	0.99 ± 0.03 kcal/mol	0.969 ± 0.06 kcal/mol
SAGGSAGGSKLEEILKKLPPNAKITIEKDEETNVYTITITNKNGEKYTFTFSKEEVKKLLEKLSAGGSAGGS [r12_174_TrROS_Hall]	3.13 ± 0.19 kcal/mol	4.76 ± 0.24 kcal/mol	4.62 ± 0.22 kcal/mol
SAGGSVDVSYDPSTGVVTVTIPSPTGSIGEEEVERVARELKEKYPNVTVSFTPSPGPAVTVTITIPGGSAGG [r13_291_JUSTAS]	1.71 ± 0.07 kcal/mol	2.24 ± 0.042 kcal/mol	2.08 ± 0.074 kcal/mol
SAGGSAMGMRPVRREFTGSGMRITVEVVESTSIPTAEIRVLDPEGRLLRERRLPAEEVEREIARLLSAGGSA [r15_940_JUSTAS]	1.34 ± 0.069 kcal/mol	1.58 ± 0.092 kcal/mol	1.55 ± 0.096 kcal/mol
